From the supplement of paper PMC9428881
± gives the standard error.

test: background-corrected fluorescence of 3'-dye-labeled ssDNA relative to brightest sequence (3'-GCGCG) (fraction); higher = brighter dye fluorescence (less quenching); settings: dye: Cy3 (3' terminal)
How it was run: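 Each of 1024 permuted pentamers was synthesized as single-stranded DNA on glass slides by light-directed phosphoramidite chemistry, with a 3' Cy3 or Cy5 dye alongside. Arrays were scanned at 532 or 635 nm before and after overnight deprotection with ethylenediamine/ethanol. Values average 10 features per array across at least 3 syntheses. The fluorescence readout, with unlabeled-oligo background removed, is given relative to the brightest sequence.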

| Sequence | background-corrected fluorescence |
| --- | --- |
| TTTTTTGCTGCTCATGCTGATTTTTTTTTTTTTTTAAGAC [CAGAA] | 0.485 ± 0.015 |
| TTTTTTGCTGCTCATGCTGCTTTTTTTTTTTTTTTAAGAA | 0.619 ± 0.015 |
| TTTTTTGCTGCTGAGCAGCATTTTTTTTTTTTTTTAACTT [TTCAA] | 0.523 ± 0.0097 |
| TTTTTTGCTGCTGAGCATCATTTTTTTTTTTTTTTAACTG [GTCAA] | 0.547 ± 0.024 |
| TTTTTTGCTGCTGAGCATGATTTTTTTTTTTTTTTAACTC [CTCAA] | 0.418 ± 0.028 |
| TTTTTTGCTGCTGAGCATGCTTTTTTTTTTTTTTTAACTA [ATCAA] | 0.5388 ± 0.0047 |
| TTTTTTGCTGCTGATCAGCATTTTTTTTTTTTTTTAACGT [TGCAA] | 0.606 ± 0.023 |
| TTTTTTGCTGCTGATCATCATTTTTTTTTTTTTTTAACGG [GGCAA] | 0.652 ± 0.019 |
| TTTTTTGCTGCTGATCATGATTTTTTTTTTTTTTTAACGC [CGCAA] | 0.547 ± 0.021 |
| TTTTTTGCTGCTGATCATGCTTTTTTTTTTTTTTTAACGA [AGCAA] | 0.613 ± 0.0098 |
| TTTTTTGCTGCTGATGAGCATTTTTTTTTTTTTTTAACCT [TCCAA] | 0.459 ± 0.016 |
| TTTTTTGCTGCTGATGATCATTTTTTTTTTTTTTTAACCG [GCCAA] | 0.545 ± 0.036 |
| TTTTTTGCTGCTGATGATGATTTTTTTTTTTTTTTAACCC [CCCAA] | 0.392 ± 0.021 |
| TTTTTTGCTGCTGATGATGCTTTTTTTTTTTTTTTAACCA [ACCAA] | 0.492 ± 0.017 |
| TTTTTTGCTGCTGATGCGCATTTTTTTTTTTTTTTAACAT [TACAA] | 0.529 ± 0.035 |
| TTTTTTGCTGCTGATGCTCATTTTTTTTTTTTTTTAACAG [GACAA] | 0.576 ± 0.02 |
| TTTTTTGCTGCTGATGCTGATTTTTTTTTTTTTTTAACAC [CACAA] | 0.421 ± 0.035 |

| Sequence | background-corrected fluorescence |
| --- | --- |
| TTTTTTGCTGCTGATGCTGCTTTTTTTTTTTTTTTAACAA | 0.527 ± 0.024 |
| TTTTTTGCTGCTGCGCAGCATTTTTTTTTTTTTTTAAATT | 0.543 ± 0.048 |
| TTTTTTGCTGCTGCGCATCATTTTTTTTTTTTTTTAAATG [GTAAA] | 0.499 ± 0.015 |
| TTTTTTGCTGCTGCGCATGATTTTTTTTTTTTTTTAAATC [CTAAA] | 0.439 ± 0.019 |
| TTTTTTGCTGCTGCGCATGCTTTTTTTTTTTTTTTAAATA [ATAAA] | 0.564 ± 0.053 |
| TTTTTTGCTGCTGCTCAGCATTTTTTTTTTTTTTTAAAGT [TGAAA] | 0.653 ± 0.026 |
| TTTTTTGCTGCTGCTCATCATTTTTTTTTTTTTTTAAAGG [GGAAA] | 0.646 ± 0.026 |
| TTTTTTGCTGCTGCTCATGATTTTTTTTTTTTTTTAAAGC [CGAAA] | 0.538 ± 0.018 |
| TTTTTTGCTGCTGCTCATGCTTTTTTTTTTTTTTTAAAGA [AGAAA] | 0.693 ± 0.03 |
| TTTTTTGCTGCTGCTGAGCATTTTTTTTTTTTTTTAAACT [TCAAA] | 0.496 ± 0.0053 |
| TTTTTTGCTGCTGCTGATCATTTTTTTTTTTTTTTAAACG [GCAAA] | 0.559 ± 0.023 |
| TTTTTTGCTGCTGCTGATGATTTTTTTTTTTTTTTAAACC [CCAAA] | 0.403 ± 0.035 |
| TTTTTTGCTGCTGCTGATGCTTTTTTTTTTTTTTTAAACA [ACAAA] | 0.51 ± 0.039 |
| TTTTTTGCTGCTGCTGCGCATTTTTTTTTTTTTTTAAAAT | 0.596 ± 0.022 |
| TTTTTTGCTGCTGCTGCTCATTTTTTTTTTTTTTTAAAAG [GAAAA] | 0.576 ± 0.021 |
| TTTTTTGCTGCTGCTGCTGATTTTTTTTTTTTTTTAAAAC [CAAAA] | 0.461 ± 0.048 |
| TTTTTTGCTGCTGCTGCTGCTTTTTTTTTTTTTTTAAAAA | 0.593 ± 0.0096 |

same assay, conditions: dye: Cy5 (3' terminal)

| Sequence | background-corrected fluorescence |
| --- | --- |
| TTTTTTGCTGCTCATGCTGATTTTTTTTTTTTTTTAAGAC [CAGAA] | 0.363 ± 0.018 |
| TTTTTTGCTGCTCATGCTGCTTTTTTTTTTTTTTTAAGAA | 0.481 ± 0.022 |
| TTTTTTGCTGCTGAGCAGCATTTTTTTTTTTTTTTAACTT [TTCAA] | 0.362 ± 0.026 |
| TTTTTTGCTGCTGAGCATCATTTTTTTTTTTTTTTAACTG [GTCAA] | 0.381 ± 0.029 |
| TTTTTTGCTGCTGAGCATGATTTTTTTTTTTTTTTAACTC [CTCAA] | 0.293 ± 0.019 |
| TTTTTTGCTGCTGAGCATGCTTTTTTTTTTTTTTTAACTA [ATCAA] | 0.406 ± 0.019 |
| TTTTTTGCTGCTGATCAGCATTTTTTTTTTTTTTTAACGT [TGCAA] | 0.45 ± 0.025 |
| TTTTTTGCTGCTGATCATCATTTTTTTTTTTTTTTAACGG [GGCAA] | 0.552 ± 0.04 |
| TTTTTTGCTGCTGATCATGATTTTTTTTTTTTTTTAACGC [CGCAA] | 0.436 ± 0.057 |
| TTTTTTGCTGCTGATCATGCTTTTTTTTTTTTTTTAACGA [AGCAA] | 0.519 ± 0.07 |
| TTTTTTGCTGCTGATGAGCATTTTTTTTTTTTTTTAACCT [TCCAA] | 0.36 ± 0.039 |
| TTTTTTGCTGCTGATGATCATTTTTTTTTTTTTTTAACCG [GCCAA] | 0.42 ± 0.035 |
| TTTTTTGCTGCTGATGATGATTTTTTTTTTTTTTTAACCC [CCCAA] | 0.294 ± 0.016 |
| TTTTTTGCTGCTGATGATGCTTTTTTTTTTTTTTTAACCA [ACCAA] | 0.375 ± 0.053 |
| TTTTTTGCTGCTGATGCGCATTTTTTTTTTTTTTTAACAT [TACAA] | 0.374 ± 0.021 |
| TTTTTTGCTGCTGATGCTCATTTTTTTTTTTTTTTAACAG [GACAA] | 0.421 ± 0.019 |
| TTTTTTGCTGCTGATGCTGATTTTTTTTTTTTTTTAACAC [CACAA] | 0.306 ± 0.021 |

| Sequence | background-corrected fluorescence |
| --- | --- |
| TTTTTTGCTGCTGATGCTGCTTTTTTTTTTTTTTTAACAA | 0.419 ± 0.024 |
| TTTTTTGCTGCTGCGCAGCATTTTTTTTTTTTTTTAAATT | 0.401 ± 0.019 |
| TTTTTTGCTGCTGCGCATCATTTTTTTTTTTTTTTAAATG [GTAAA] | 0.375 ± 0.035 |
| TTTTTTGCTGCTGCGCATGATTTTTTTTTTTTTTTAAATC [CTAAA] | 0.306 ± 0.019 |
| TTTTTTGCTGCTGCGCATGCTTTTTTTTTTTTTTTAAATA [ATAAA] | 0.451 ± 0.031 |
| TTTTTTGCTGCTGCTCAGCATTTTTTTTTTTTTTTAAAGT [TGAAA] | 0.514 ± 0.049 |
| TTTTTTGCTGCTGCTCATCATTTTTTTTTTTTTTTAAAGG [GGAAA] | 0.502 ± 0.032 |
| TTTTTTGCTGCTGCTCATGATTTTTTTTTTTTTTTAAAGC [CGAAA] | 0.426 ± 0.021 |
| TTTTTTGCTGCTGCTCATGCTTTTTTTTTTTTTTTAAAGA [AGAAA] | 0.568 ± 0.03 |
| TTTTTTGCTGCTGCTGAGCATTTTTTTTTTTTTTTAAACT [TCAAA] | 0.349 ± 0.028 |
| TTTTTTGCTGCTGCTGATCATTTTTTTTTTTTTTTAAACG [GCAAA] | 0.426 ± 0.028 |
| TTTTTTGCTGCTGCTGATGATTTTTTTTTTTTTTTAAACC [CCAAA] | 0.29 ± 0.015 |
| TTTTTTGCTGCTGCTGATGCTTTTTTTTTTTTTTTAAACA [ACAAA] | 0.407 ± 0.023 |
| TTTTTTGCTGCTGCTGCGCATTTTTTTTTTTTTTTAAAAT | 0.462 ± 0.077 |
| TTTTTTGCTGCTGCTGCTCATTTTTTTTTTTTTTTAAAAG [GAAAA] | 0.403 ± 0.03 |
| TTTTTTGCTGCTGCTGCTGATTTTTTTTTTTTTTTAAAAC [CAAAA] | 0.321 ± 0.019 |
| TTTTTTGCTGCTGCTGCTGCTTTTTTTTTTTTTTTAAAAA | 0.476 ± 0.026 |
